Assay results reported in patent US20060088908A1 (Pieris, published 2006).

B1: hNGAL mutein RFY-E with C-terminal Strep-Tag II (phNGAL15 derivative, purified) (designed binder, not shown: small tags and cut ends)
chain: QDSTSDLIPAPPLSKVPLQQNFQDNQFQGKWYLVGLAGNGITRVDTLPSRMYATIYELKEDKSYNVTSVPFMGKKCKYKIRTFVPGSQPGEFTLGNIKSYMSNTSFLVRVVSTNYNQHAMVFFKQVHKNPESFKITIYGRTKELPSELKENFIRFSKSLGLPENHIVFPVPIDQCIDG
B2: hNGAL mutein N4 with C-terminal Strep-Tag II (phNGAL15 derivative, purified) (designed binder, not shown: small tags and cut ends)
chain: QDSTSDLIPAPPLSKVPLQQNFQDNQFQGKWYLVGLAGNDIYRADSLPGLMYATIYELKEDKSYNVTSVVFYDKKCVYSIRTFVPGSQPGEFTLGNIKSYEAVTSFLVRVVSTNYNQHAMVFFKDVRPNSEEFKITIYGRTKELPSELKENFIRFSKSLGLPENHIVFPVPIDQCIDG
B3: biotinylated synthetic thrombospondin peptide from the cell binding domain of human Thrombospondin1 (peptide)
peptide: RFYVVMWKXXK
modifications: Aca-Aca (amino caproic acid) after Lys8; C-terminal Lys-Biotin
notes: Immobilised through its C-terminal biotin on avidin (ELISA) or streptavidin chip (SPR)
B4: hNGAL mutein RFY-C with C-terminal Strep-Tag II (phNGAL15 derivative, purified) (designed binder, not shown: small tags and cut ends)
chain: QDSTSDLIPAPPLSKVPLQQNFQDNQFQGKWYLVGLAGNGIHRLDNVPPNMYATIYELKEDKSYNVTSVDFLMKKCPYFIRTFVPGSQPGEFTLGNIKSYPFLTSFLVRVVSTNYNQHAMVFFKNVPRNYEEFKITIYGRTKELPSELKENFIRFSKSLGLPENHIVFPVPIDQCIDG

Experiments:
[1] = target: streptavidin of the streptavidin-coated sensor chip SA (BIACORE) (UniProt P22629 37-163, limits assumed); assay: SPR, BIAcore X, streptavidin-coated sensor chip SA
Sequence of streptavidin of the streptavidin-coated sensor chip SA (BIACORE) (P22629 37-163 limits assumed): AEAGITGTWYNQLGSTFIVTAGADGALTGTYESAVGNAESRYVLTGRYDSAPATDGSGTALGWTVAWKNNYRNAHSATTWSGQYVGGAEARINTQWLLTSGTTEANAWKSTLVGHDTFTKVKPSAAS

[2] = target: B3; assay: SPR, BIAcore X, steady state, biotinylated peptide on sensor chip SA
Experimental: The binding affinity of the hNGAL muteins to the thrombospondin peptide SEQ ID NO: 18 was determined by surface plasmon resonance (SPR) using the BIAcore X system (BIACORE). First 35 μl of the biotinylated thrombospondin peptide at a concentration of 1 μg/ml (prepared by mixing 1 μl of a 200 μg/ml peptide solution in DMF with 199 μl HBS buffer containing 150 mM NaCl, 10 mM HEPES pH 7.4, 3 mM EDTA) was immobilized to the surface of one flow channel of a streptavidin-coated sensor chip SA (BIACORE) according to the instructions of the manufacturer, resulting in an amount of ca. 400 response units (RU). Binding curves of the hNGAL muteins were then measured by applying 35 μl of each purified muteins from Example 9 in HBS buffer at concentrations between 500 nM and 25 nM using HBS-EP (HBS containing 0.005% Surfactant P20) as a running buffer and a continuous flowrate of 5 μl/min.
Steady state resonance values were measured at the end of the injection phase for the channel with the immobilized thrombospondin peptide for each protein concentration applied. Only negligible buffer effects were detected in the second channel of the sensor chip, which served as a control. These values were directly plotted against the concentration of the hNGAL mutein. […]

[3] = target: B3; assay: ELISA, apparent KD, biotinylated peptide on avidin-coated plate, anti-strepII-antibody-HRP
Experimental: For the detection of binding in an ELISA (Enzyme-linked Immunosorbent Assay) the wells of a microtiter plate (Maxisorb, Nunc) were filled each with 50 μl of a 50 μg/ml solution of Avidin (Fluka) in PBS and were incubated over night at room temperature (RT). After washing three times with PBST, 50 μl of a 1 μM solution of the biotinylated thrombospondin peptide SEQ ID NO:18 in PBST were filled into the wells and the peptide was immobilized via complex formation between biotin and the preadsorbed avidin. After incubation for one hour the solution was removed and the wells of the microtiter plate were washed three times with PBST. In order to saturate unspecific binding sites, the wells were filled with 100 μl of 4% w/v BSA in PBST and incubated for one hour at RT, followed by three times washing with PBST.
Then a dilution series of the muteins from Example 9 was prepared, starting from 100 nM concentration, and followed by 1 hour incubation at RT. As a control for unspecific binding to avidin, a similar dilution series of hNGAL and its muteins was applied to wells where the thrombospondin peptide had been omitted. After washing three times with PBST, Anti-strepII-antibody-HRP-conjugate (IBA), diluted 1:8000 with PBST, was applied to the wells. Incubation was performed for 1 hour at RT and followed by washing three times with PBST and twice with PBS. […]

[4] = target: T1, recombinant human cytokine interleukin-8 (Promocell) (human, UniProt P10145 23-99, biotin groups on lysine residues (NHS-SS-Biotin) in the ELISA; digoxigenin groups (DIG-NHS) in the colony screening); assay: ELISA, apparent KD, biotinylated IL-8 on avidin-coated plate, anti-strepII-antibody-HRP
T1 construct: also called IL-8
T1 sequence: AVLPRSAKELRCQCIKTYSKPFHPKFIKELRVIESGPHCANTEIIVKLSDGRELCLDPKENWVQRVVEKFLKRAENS
Experimental: (§1) For the detection of binding in an ELISA experiment two rows (12 wells each) of a 96 microtiter plate (Maxisorb, Nunc) were coated with 50 μl of a 50 μg/ml solution of Avidin (Fluka) in PBS overnight at 4° C. After washing three times with PBST, one row was treated with 50 μl/well of a 1 μM solution of biotinylated IL-8 in PBST, whereas the second row was incubated with PBST as a control. After 1 hour at RT, all wells were washed three times with PBST and unspecific binding sites were saturated with 100 μl of 4% w/v skimmed milk powder in PBST for 1 hour at RT.
(§2) As a control for unspecific binding to avidin, a similar dilution series of the mutein N4 was applied to wells where the IL-8 had been omitted. Complex formation was allowed for 1 hour at RT, followed by three washes with PBST and incubation at RT for 1 hour with anti-strepII-antibody-HRP-conjugate (IBA) diluted 1:8000 in PBST.
(§3) Detection of bound mutein N4 was accomplished using 3,3′,5,5′-tetramethylbenzidine and H₂O₂ as substrates for horseradish-peroxidase. For this purpose, all wells were filled with 100 μl of a ready-to-use HRP-substrate solution (Biochem Immunosystems). The colour development was stopped after a few minutes by adding 100 μl of 0.3 M sulphuric acid. Product formation was measured via endpoint absorption at 450 nm in a SpectraMax 250 photometer (Molecular Devices).

Avidin (Fluka) = Avidin (Fluka) (UniProt P02701 25-152); assay: ELISA control without IL-8: avidin-coated wells only, mutein N4 titrated, anti-strepII-antibody-HRP detection, OD450
Sequence of Avidin (Fluka) (P02701 25-152 limits assumed): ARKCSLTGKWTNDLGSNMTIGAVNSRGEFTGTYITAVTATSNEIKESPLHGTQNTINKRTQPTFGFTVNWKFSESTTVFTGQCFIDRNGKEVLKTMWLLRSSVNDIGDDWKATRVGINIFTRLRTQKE
Experimental: as §1, §2, §3

[5] = target: T2, original hNGAL with C-terminal Strep-Tag II (encoded by phNGAL15, purified) (human, UniProt P80188 21-198); assay: ELISA: biotinylated thrombospondin peptide on avidin-coated wells, hNGAL titrated, anti-strepII-antibody-HRP detection, A450
T2 construct: mature
Experimental: For the detection of binding in an ELISA (Enzyme-linked Immunosorbent Assay) the wells of a microtiter plate (Maxisorb, Nunc) were filled each with 50 μl of a 50 μg/ml solution of Avidin (Fluka) in PBS and were incubated over night at room temperature (RT). After washing three times with PBST, 50 μl of a 1 μM solution of the biotinylated thrombospondin peptide SEQ ID NO:18 in PBST were filled into the wells and the peptide was immobilized via complex formation between biotin and the preadsorbed avidin. After incubation for one hour the solution was removed and the wells of the microtiter plate were washed three times with PBST. In order to saturate unspecific binding sites, the wells were filled with 100 μl of 4% w/v BSA in PBST and incubated for one hour at RT, followed by three times washing with PBST. […]
as §3, with “hNGAL muteins” for “mutein N4”, “purpose,” for “purpose, all wells were filled with”, “Immunosystems) was filled into the wells and the” for “Immunosystems). The”, “via the” for “via”

Binder | binding result [1] | Kd [2] [nM] | Kd [3] [nM] | Kd [4] [nM] | binding result (Avidin (Fluka)) | binding result [5]
B1 | no binding | 107 | 8.2 |  |  | 
B2 |  |  |  | 300 | no binding (tested: 1000 nM) | 
B3 |  |  |  |  |  | no binding (tested: 200 nM)
B4 | no binding | 106 | 4.6 |  |  | 
